Here are results for one molecule from patent US20180009892A1.

Test [1] deals with T1, human ROR1 extracellular domain (ECD) protein (human), Q01973. The experiment in a line: ForteBio Octet, Wnt5a binding to ROR1 in the presence of antibody 601-3-2. For orientation: Biolayer interferometry detects binding as a change in optical thickness at a sensor tip.
The target in test [2] is T1, human ROR1 extracellular domain (ECD) …. The experiment in a line: ForteBio Octet, Wnt5a binding to ROR1 in the presence of the control mAb.
For test [3] the target is unchanged. The experiment in a line: ForteBio Octet, Wnt5a binding to ROR1 in the presence of antibody 601-3-12.
For test [4] the target is unchanged. The experiment in a line: ForteBio Octet, Wnt5a binding to ROR1 in the presence of antibody 601-3-16.

T1 sequence (Q01973 30-406 limits assumed): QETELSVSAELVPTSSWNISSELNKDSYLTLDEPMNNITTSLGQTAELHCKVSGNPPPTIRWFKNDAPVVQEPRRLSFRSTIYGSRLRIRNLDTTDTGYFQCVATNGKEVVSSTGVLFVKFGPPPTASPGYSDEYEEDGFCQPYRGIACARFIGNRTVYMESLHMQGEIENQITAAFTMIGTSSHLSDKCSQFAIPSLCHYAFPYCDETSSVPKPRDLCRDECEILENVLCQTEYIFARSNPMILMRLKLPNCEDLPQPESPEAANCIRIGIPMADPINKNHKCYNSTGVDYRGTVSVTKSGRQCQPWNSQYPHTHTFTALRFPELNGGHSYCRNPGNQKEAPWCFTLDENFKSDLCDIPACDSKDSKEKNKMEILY

B1: Wnt5a, P41221 62-380 (ligand, UniProt P41221 62-380, looked up)
chain: IIGAQPLCSQLAGLSQGQKKLCHLYQDHMQYIGEGAKTGIKECQYQFRHRRWNCSTVDNTSVFGRVMQIGSRETAFTYAVSAAGVVNAMSRACREGELSTCGCSRAARPKDLPRDWLWGGCGDNIDYGYRFAKEFVDARERERIHAKGSYESARILMNLHNNEAGRRTVYNLADVACKCHGVSGSCSLKTCWLQLADFRKVGDALKEKYDSAAAMRLNSRGKLVQVNSRFNSPTTQDLVYIDPSPDYCVRNESTGSLGTQGRLCNKTSEGMDGCELMCCGRGYDQFKTVQTERCHCKFHWCCYVKCKKCTEIVDQFVCK
Take B1: the Pesudo ka in test [1] amounted to 13000 M⁻¹ s⁻¹; in test [2], 21000 M⁻¹ s⁻¹; in test [3], 5300 M⁻¹ s⁻¹; in test [4], 6700 M⁻¹ s⁻¹.
